The test concerns the target Coxiella burnetii Fic enzyme 2 (CbFic2), wild type, untagged (Coxiella burnetii) (UniProt Q83DB6). Briefly: crystal structure.

For the substance “Coxiella burnetii Fic enzyme 2 (CbFic2), wild type, untagged (from UniProt Q83DB6 1-378)”, the stoichiometry N (commonly the number of molecules, sites or subunits per partner or assembly) turned out to be 2.
